Experimental data: publication PMC6101532

Key:
[1] = molecular target: his-tagged RsbN(1–91) (Streptomyces venezuelae); assay: SEC
[2] = molecular target: MBP–RsbN α3 (maltose binding protein joined by a linker to RsbN α3) (Streptomyces venezuelae); assay: SEC

Row | Substance | stoichiometry N [1] | stoichiometry N [2]
1 | BldN domain 4 (σ4), non-tagged (domain or fragment) | 1 | –
2 | BldN (σ^BldN), full length, wild type (natural protein) | – | 1
3 | BldN domain 2 (σ2), non-tagged (domain or fragment) | 1 | –
